Reference: paper PMC4173154 (Genes & Development, 2014)

Target: native Drosophila core histones (Drosophila, UniProt P84051 1-124; P02283 1-123; P02299 1-136; P84040 1-103)
Test: co-sedimentation

binding result: binds
B1: recombinant Drosophila NLP, C-terminal 6-His tag (natural protein)
chain: MAEESFYGVTLTAESDSVTWDVDEDYARGQKLVIKQILLGAEAKENEFNVVEVNTPKDSVQIPIAVLKAGETRAVNPDVEFYESKVTFKLIKGSGPVYIHGHNIKDDVEVVDMEEDDEEDDVAEDEEDEHPKKRAKIENAADGKNAKNNKKK
